Assay results: US20240400687A1 (Regeneron, published 2024)

T1: mouse PD1 (mPD1) (mouse, UniProt Q02242 25-288)
T1 construct: whole, on cells; also called murine PD1
T1 sequence (looked up): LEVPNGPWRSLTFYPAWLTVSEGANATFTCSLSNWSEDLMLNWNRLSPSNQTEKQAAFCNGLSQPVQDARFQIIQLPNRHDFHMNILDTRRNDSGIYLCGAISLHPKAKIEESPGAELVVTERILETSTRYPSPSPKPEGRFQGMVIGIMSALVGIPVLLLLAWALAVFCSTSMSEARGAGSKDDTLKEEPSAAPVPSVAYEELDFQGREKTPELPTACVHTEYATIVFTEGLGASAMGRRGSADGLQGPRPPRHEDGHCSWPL


How the values were obtained:
[1] = target: T1, mouse PD1 (mPD1); assay: flow cytometry on Jurkat/mPD1 cells
Protocol: Cells (HEK 293, MC38 over-expressing mCD20, or Jurkat over-expressing mPD1) were resuspended in FACS wash (PBS with 1% FBS) at 1×10⁶ cells/mL. The staining was performed in 1×10⁵ cells per well. The antibodies were diluted with a ratio of 1:5 from a starting concentration of 1.3×10⁻⁰⁷ M. The diluted antibodies were then added into the wells containing cells. Cells were stained for 30 min at 2-8° C. and washed twice with FACS wash buffer. APC-conjugated goat anti-human IgG (Jackson Immuno Research, 109-607-003, 1:400) or AF647-conjugated goat anti-mFc Fab (Jackson Immuno Research, 115-607-185, 1:400) was added to stain the cells for 30 min at 2-8° C. Following washing, cells were fixed in 2% paraformaldehyde for 30 min at 2-8° C. After two washes, stained cells were analyzed using BD LSRFortessa™ FACS instrument. The results were analyzed by FlowJo. FSC/SSC gates were used to select mononuclear cells.

[2] = target: T1, mouse PD1 (mPD1); assay: cell-based or functional assay

Binder	binding result [1]	Max % inhibition, luciferase bioassay, 1 nM CD3 bsAb [2] [%]
1B12IgG1EN (antibody, IgG, mCD20 x mCD20, 145.3 kDa; also called Molecule ID M) heavy 1: QVQLQQPGAELVRPGTSVKLSCKASGYTFTSYWMHWIKQRPGQGLEWIGVIDPSDNYTKYNQKFKGKATLTVDTSSSTAYMQLSSLTSEDSAVYFCAREGYYGSSPWFAYWGQGTLVTVSSASTKGPSVFPLAPSSKSTSGGTAALGCLVKDYFPEPVTVSWNSGALTSGVHTFPAVLQSSGLYSLSSVVTVPSSSLGTQTYICNVNHKPSNTKVDKKVEPKSCDKTHTCPPCPAPEAEGAPSVFLFPPKPKDTLMISRTPEVTCVVVDVSHEDPEVKFNWYVDGVEVHNAKTKPREEQYNSTYRVVSVLTVLHQDWLNGKEYKCKVSNKALPSSIEKTISKAKGQPREPQVYTLPPCRDELTKNQVSLWCLVKGFYPSDIAVEWESNGQPENNYKTTPPVLDSDGSFFLYSKLTVDKSRWQQGNVFSCSVMHEALHNHYTQKSLSLSPGK heavy 2: QVQLQQPGAELVRPGTSVKLSCKASGYTFTSYWMHWIKQRPGQGLEWIGVIDPSDNYTKYNQKFKGKATLTVDTSSSTAYMQLSSLTSEDSAVYFCAREGYYGSSPWFAYWGQGTLVTVSSASTKGPSVFPLAPSSKSTSGGTAALGCLVKDYFPEPVTVSWNSGALTSGVHTFPAVLQSSGLYSLSSVVTVPSSSLGTQTYICNVNHKPSNTKVDKKVEPKSCDKTHTCPPCPAPEAEGAPSVFLFPPKPKDTLMISRTPEVTCVVVDVSHEDPEVKFNWYVDGVEVHNAKTKPREEQYNSTYRVVSVLTVLHQDWLNGKEYKCKVSNKALPSSIEKTISKAKGQPREPQVCTLPPSRDELTKNQVSLSCAVKGFYPSDIAVEWESNGQPENNYKTTPPVLDSDGSFFLVSKLTVDKSRWQQGNVFSCSVMHEALHNRFTQKSLSLSPGK light: QIVMSQSPAILSASPGEKVTMTCRARSSVSYIHWYQQKPGSSPKPWIYATSNLASGVPGRFSGSGSGTSYSLTITRVEAEDAATYYCQQWSSKPPTFGGGTKLEIKRTVAAPSVFIFPPSDEQLKSGTASVVCLLNNFYPREAKVQWKVDNALQSGNSQESVTEQDSKDSTYSLSSTLTLSKADYEKHKVYACEVTHQGLSSPVTKSFNRGEC	no binding	19
18B12-scFvFc (scFv, V domains shown) VH: QVQLQQPGAELVRPGTSVKLSCKASGYTFTSYWMHWIKQRPGQGLEWIGVIDPSDNYTKYNQKFKGKATLTVDTSSSTAYMQLSSLTSEDSAVYFCAREGYYGSSPWFAYWGQGTLVTVSS VL: QIVMSQSPAILSASPGEKVTMTCRARSSVSYIHWYQQKPGSSPKPWIYATSNLASGVPGRFSGSGSGTSYSLTITRVEAEDAATYYCQQWSSKPPTFGGGTKLEIK	no binding	
